Measurements as given in patent US20150152185A1.

Experiments:
[1] = molecular target: CD123 (human IL-3Ralpha), form in the assay not stated (human) (UniProt P26951); test: method not stated
[2] = molecular target: CD123 (IL-3 receptor alpha chain, IL-3Ralpha) on cells (human) (UniProt P26951); test: cell-based or functional assay

“CSL360 (chimeric antibody: 7G3 variable regions on a human IgG1 constant region)” was tested, and the Kd [1] was 1.06 nM, the % CD107a positive NK cells, PBMC with AML sample RMH003 and CSL360 [2] was 39% and the % lysis, 51Cr release ADCC, CTLEN cells, E:T 10:1 [2] was 10%. It also gave a % lysis, 51Cr release ADCC, CTLEN cells, E:T 100:1 [2] of 51%, a % lysis, 51Cr release ADCC, SL (AML) cells, E:T 10:1 [2] of 2.4% and a % lysis, 51Cr release ADCC, SL (AML) cells, E:T 100:1 [2] of 15%. For the same substance, the % lysis, calcein release ADCC, RBH013 (AML), E:T 10:1 [2] was 0%, the % lysis, calcein release ADCC, RBH013 (AML), E:T 100:1 [2] was 0% and the % lysis, calcein release ADCC, RMH003 (AML), E:T 10:1 [2] was 39.2%. The % lysis, calcein release ADCC, RMH003 (AML), E:T 100:1 [2] was 82.6%, the % lysis, calcein release ADCC, RMH008 (AML), E:T 10:1 [2] was 59.5% and the % lysis, calcein release ADCC, RMH008 (AML), E:T 100:1 [2] was 100%. The % lysis, calcein release ADCC, RMH009 (B-ALL), E:T 10:1 [2] was 0%, the % lysis, calcein release ADCC, RMH009 (B-ALL), E:T 100:1 [2] was 0% and the % lysis, calcein release ADCC, RMH009* (B-ALL, repeat with other PBMC), E:T 10:1 [2] was 0%. For the same substance, the % lysis, calcein release ADCC, RMH009* (B-ALL, repeat with other PBMC), E:T 100:1 [2] was 0%, the % lysis, calcein release ADCC, RMH010 (AML), E:T 10:1 [2] was 4% and the % lysis, calcein release ADCC, RMH010 (AML), E:T 100:1 [2] was 0%. For the same substance, the % of NK cells expressing CD107a, CSL360 at E:T 1:1, CTLEN-001 [2] was 6.7%, the % of NK cells expressing CD107a, CSL360 at E:T 1:1, CTLEN-008 [2] was 24% and the % of NK cells expressing CD107a, CSL360 at E:T 1:1, CTLEN-010 [2] was 5.7%. For the same substance, the % of NK cells expressing CD107a, CSL360 at E:T 1:1, CTLEN-011-PBMC-1 [2] was 8.1%, the % of NK cells expressing CD107a, CSL360 at E:T 1:1, CTLEN-011-PBMC-2 [2] was 10.5% and the % of NK cells expressing CD107a, CSL360 at E:T 1:1, EL4hi-002 [2] was 2.9%. For the same substance, the % of NK cells expressing CD107a, CSL360 at E:T 1:1, EL4hi-003 [2] was 15%, the % of NK cells expressing CD107a, CSL360 at E:T 1:1, EL4hi-004 [2] was 16% and the % of NK cells expressing CD107a, CSL360 at E:T 1:1, EL4hi-005 [2] was 21%. The % of NK cells expressing CD107a, CSL360 at E:T 1:1, EL4hi-010 [2] was 34%, the % of NK cells expressing CD107a, CSL360 at E:T 1:1, EL4hi-011-PBMC-1 [2] was 15.5% and the % of NK cells expressing CD107a, CSL360 at E:T 1:1, EL4hi-011-PBMC-2 [2] was 23.5%. It also gave a % of NK cells expressing CD107a, CSL360 at E:T 1:1, EL4hi/lo-001 [2] of 2.8%, a % of NK cells expressing CD107a, CSL360 at E:T 1:1, RBH009^a (AML) [2] of 8.5% and a % of NK cells expressing CD107a, CSL360 at E:T 1:1, RBH009^b (AML) [2] of 8%. For the same substance, the % of NK cells expressing CD107a, CSL360 at E:T 1:1, RBH013^a (AML) [2] was 10%, the % of NK cells expressing CD107a, CSL360 at E:T 1:1, RBH013^b (AML) [2] was 22% and the % of NK cells expressing CD107a, CSL360 at E:T 1:1, RMH003^a (AML) [2] was 30%. The % of NK cells expressing CD107a, CSL360 at E:T 1:1, RMH003^b (AML) [2] was 33%, the % of NK cells expressing CD107a, CSL360 at E:T 1:1, RMH003^c (AML) [2] was 38% and the % of NK cells expressing CD107a, CSL360 at E:T 1:1, RMH007 (B-ALL) [2] was 16.4%. It also gave a % of NK cells expressing CD107a, CSL360 at E:T 1:1, RMH008^a (AML) [2] of 9%, a % of NK cells expressing CD107a, CSL360 at E:T 1:1, RMH008^b (AML) [2] of 16% and a % of NK cells expressing CD107a, CSL360 at E:T 1:1, RMH008^c (AML) [2] of 8.7%. The % of NK cells expressing CD107a, CSL360 at E:T 1:1, RMH009^a (B-ALL) [2] was 3%, the % of NK cells expressing CD107a, CSL360 at E:T 1:1, RMH009^b (B-ALL) [2] was 1.7% and the % of NK cells expressing CD107a, CSL360 at E:T 1:1, RMH009^c (B-ALL) [2] was 7.4%. The % of NK cells expressing CD107a, CSL360 at E:T 1:1, RMH010^a (AML) [2] was 14%, the % of NK cells expressing CD107a, CSL360 at E:T 1:1, RMH010^b (AML) [2] was 25.5% and the % of NK cells expressing CD107a, CSL360 at E:T 1:1, RMH011 (AML) [2] was 6.6%. For the same substance, the % of NK cells expressing CD107a, CSL360 at E:T 1:1, TF-1 (GM-CSF) [2] was 0.7%, the % of NK cells expressing CD107a, CSL360 at E:T 1:1, TF-1 (IL-3) [2] was 1.45% and the IC50, IL-3-dependent TF-1 cell proliferation [2] was 5 nM.
